Test results reported in publication PMC6125598.

Biological target: STIM1-CFP (stromal interacting molecule 1) (UniProt Q13586)
Assay: FRET or BRET; FRET between YFP-IP3R and STIM1-CFP in transfected cells, measured in TIRFM mode (less than 100 nm from the coverslip), after bradykinin stimulation (cells transfected with the human bradykinin type 2 receptor)

UniProt Q13586, sequence (Q13586 23-685): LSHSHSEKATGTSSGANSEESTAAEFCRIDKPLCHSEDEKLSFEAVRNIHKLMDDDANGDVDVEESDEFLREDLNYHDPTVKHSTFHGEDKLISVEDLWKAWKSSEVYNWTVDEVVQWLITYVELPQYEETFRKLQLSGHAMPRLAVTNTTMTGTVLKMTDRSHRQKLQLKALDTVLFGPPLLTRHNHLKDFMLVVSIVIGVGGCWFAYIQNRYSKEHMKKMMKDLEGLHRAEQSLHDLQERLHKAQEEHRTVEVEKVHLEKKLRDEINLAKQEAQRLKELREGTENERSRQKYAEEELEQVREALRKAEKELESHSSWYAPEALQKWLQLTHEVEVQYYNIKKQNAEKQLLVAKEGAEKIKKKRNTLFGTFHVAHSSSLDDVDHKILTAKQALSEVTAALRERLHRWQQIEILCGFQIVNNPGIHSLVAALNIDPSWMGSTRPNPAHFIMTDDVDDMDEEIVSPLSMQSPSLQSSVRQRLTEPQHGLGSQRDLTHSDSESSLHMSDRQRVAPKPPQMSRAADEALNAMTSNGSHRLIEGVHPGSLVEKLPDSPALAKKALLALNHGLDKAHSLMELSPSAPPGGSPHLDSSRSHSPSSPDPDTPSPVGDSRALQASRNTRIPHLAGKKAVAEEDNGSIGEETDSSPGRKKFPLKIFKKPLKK

YFP-IP3R (inositol trisphosphate receptor type 1) (from UniProt Q14643-2 1-2743)
FRET efficiency: 24%
